Patent US20150158934A1
Where a chain is given by its changes, count along the chain named.

Columns and labels:
[1] = molecular target: gp140CN54 (subtype B'/C), gp140 envelope glycoprotein from the HIV-1 group M CRF07-B/C-clade isolate 97CN54 (HIV-1); assay: binding of VHH to gp140 CN54 (method not given)
[2] = molecular target: gp140UG37 (subtype A), gp140 envelope glycoprotein from the HIV-1 group M A-clade isolate 92UG037 (HIV-1); assay: binding of VHH to gp140 92UG (method not given)
[3] = molecular target: gp120Yu-2 109-428 (HIV-1); assay: competition ELISA on coated gp120Yu-2 109-428; periplasmic VHH first, then competitor sCD4 detected
[4] = molecular target: gp120Yu-2 109-428 (HIV-1); assay: competition ELISA on coated gp120Yu-2 109-428; periplasmic VHH first, then competitor 17b detected
[5] = molecular target: gp140CN54 (subtype B'/C), gp140 envelope glycoprotein from the HIV-1 group M CRF07-B/C-clade isolate 97CN54 (HIV-1); assay: binding of purified VHH to gp140 CN54 (method not given)
[6] = molecular target: gp140UG37 (subtype A), gp140 envelope glycoprotein from the HIV-1 group M A-clade isolate 92UG037 (HIV-1); assay: binding of purified VHH to gp140 92UG (method not given)
[7] = molecular target: gp120Yu-2 109-428 (HIV-1); assay: competition ELISA on coated gp120Yu-2 109-428; periplasmic VHH first, then competitor b12 detected

B1: J3_CDR2_fill_1 (site directed mutagenesis) (VHH)
VHH: EVQLVESGGGLVQAGGFLRLSCELRGSIFNQYAMAWFRQAPGKEREFVAGMSGAVPHYGEFVKGRFTISRDNAKSTVYLQMSSLKPEDTAIYFCARSKSTYISYNSNGYDYWGRGTQVTVSS
[1]
  K50 (50% binding concentration): > 100 µg/mL
[2]
  K50 (50% binding concentration): > 10 µg/mL

B2: L93E3 (VHH)
VHH: EVQLVESGGGLVQPGGSLRLSCAASQFTLESYAIGWFRQAPGKDSEGVACISSSTYYADSVKGRFTISRDNAKNTVYLQMESLKPEDTAVYHCATSGAGSYCTLRAFGSWGQGTQVTVSS
[3]
  signal as percent of the signal of the control: < 30%

B3: L1719E1 (VHH)
VHH: EVQLVESGGGLVRHGDSLRLSCLVSGRTTSVYATGWFRQAPGKEREFVAAISWSGGYTNYADSVKGRFTISRDNAKNTVFLQMNSLKPEDTAVYYCAADRNPYRGSNNANAYDYWGQGTQVTVSS
[4]
  signal as percent of the signal of the control: < 30%

B4: J3_CDR2_fill_2 (site directed mutagenesis) (VHH)
VHH: EVQLVESGGGLVQAGGFLRLSCELRGSIFNQYAMAWFRQAPGKEREFVAGMSWGAVPHYGEFVKGRFTISRDNAKSTVYLQMSSLKPEDTAIYFCARSKSTYISYNSNGYDYWGRGTQVTVSS
[1]
  K50 (50% binding concentration): > 100 µg/mL
[2]
  K50 (50% binding concentration): > 10 µg/mL

B5: 3E3mod-long-CDR2 (VHH)
VHH: QVQLQESGGGLVQAGGSLRLSCAASQFTLESYAIGWFRQAPGKDSEGVACISSSDGSTYYADSVKGRFTISRDNAKNTVYLQMNSLKPEDTAVYHCATSGAGSYCTLRAFGSWGQGTQVTVSS
[2]
  K50 (50% binding concentration): > 10 µg/mL

B6: L8Cj3 Mutant 2 (VHH)
VHH: EVQLVESGGGLVQAGGFLRLSCELRGSIFSQYAMAWFRQAPGKEREFVAGMGAVPHYGEFVKGRFTISRDNAKSTVYLQMSSLKPEDTAIYFCARSKSTYISYNSNGYDYWGRGTQVTVSS
[5]
  K50 (50% binding concentration; column head reads KD): 0.18 µg/mL
[6]
  K50 (50% binding concentration; column head reads KD): 0.04 µg/mL

B7: L8Cj3 Mutant 1 (VHH)
VHH: B6 VHH with E23A, L24A, R25S, S30N
[5]
  K50 (50% binding concentration; column head reads KD): 67.8 µg/mL
[6]
  K50 (50% binding concentration; column head reads KD): 0.058 µg/mL

B8: L8Cj3 Mutant 10 (VHH)
VHH: B6 VHH with S30N, G107E
[5]
  K50 (50% binding concentration; column head reads KD): 12.1 µg/mL
[6]
  K50 (50% binding concentration; column head reads KD): 0.086 µg/mL

B9: L8Cj3 Mutant 5 (VHH)
VHH: B6 VHH with S30N, I90V
[5]
  K50 (50% binding concentration; column head reads KD): 1.07 µg/mL
[6]
  K50 (50% binding concentration; column head reads KD): 0.028 µg/mL

B10: L8Cj3 Mutant 9 (VHH)
VHH: B6 VHH with S30N, N104A
[5]
  K50 (50% binding concentration; column head reads KD): 0.14 µg/mL
[6]
  K50 (50% binding concentration; column head reads KD): 0.022 µg/mL

B11: L8Cj3 Mutant 4 (VHH)
VHH: B6 VHH with S30N, G58A, E59D, F60S
[5]
  K50 (50% binding concentration; column head reads KD): 1.84 µg/mL
[6]
  K50 (50% binding concentration; column head reads KD): 0.025 µg/mL

B12: L8Cj3 Mutant 11 (VHH)
VHH: B6 VHH with S30N, R113Q
[5]
  K50 (50% binding concentration; column head reads KD): 9.26 µg/mL
[6]
  K50 (50% binding concentration; column head reads KD): 0.019 µg/mL

B13: L8Cj3 Mutant 13 (VHH)
VHH: B6 VHH with S27R, I28T, S30N
[5]
  K50 (50% binding concentration; column head reads KD): > 100 µg/mL
[6]
  K50 (50% binding concentration; column head reads KD): 0.027 µg/mL

B14: L8Cj3 Mutant 7 (VHH)
VHH: B6 VHH with S30N, R95A
[5]
  K50 (50% binding concentration; column head reads KD): > 100 µg/mL
[6]
  K50 (50% binding concentration; column head reads KD): 0.95 µg/mL

B15: L8Cj3 Mutant 8 (VHH)
VHH: B6 VHH with S30N, S98N
[5]
  K50 (50% binding concentration; column head reads KD): 0.36 µg/mL
[6]
  K50 (50% binding concentration; column head reads KD): 0.02 µg/mL

B16: L8i5 (VHH)
VHH: B6 VHH with L24P, S30N, P55A, S74N, V76A, S81N
[5]
  K50 (50% binding concentration; column head reads KD): 8.54 µg/mL
[6]
  K50 (50% binding concentration; column head reads KD): 0.048 µg/mL

B17: L8Cj3 Mutant 12 (VHH)
VHH: B6 VHH with E23I, L24Y, S30N
[5]
  K50 (50% binding concentration; column head reads KD): > 100 µg/mL
[6]
  K50 (50% binding concentration; column head reads KD): 0.042 µg/mL

B18: L8Cj3 Mutant 6 (VHH)
VHH: B6 VHH with S30N, F92Y
[5]
  K50 (50% binding concentration; column head reads KD): 0.25 µg/mL
[6]
  K50 (50% binding concentration; column head reads KD): 0.024 µg/mL

B19: L81H9 (VHH)
VHH: EVQLVESGGGLVQAGGSLRLSCVCSGFSSDEYAIGWFRQAPGKEREGVSYISREDGSRHYADSVKGRFTISTDYARNTVYLQMDSLKPEDTGVYYCAAALLGDYVLWLPEYPYNYWGQGTQVTVSS
[7]
  signal as percent of the signal of the control: < 30%
